From the supplement of paper PMC12042874
± gives the uncertainty stated by the source.

Assay: amyloid nucleation score (Sup35N fusion, yeast selection) (log enrichment); library NNK3; higher = more nucleation; inactive = no reads after selection
In short: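 Plasmid inserts were Illumina-sequenced at input and output from psi-negative yeast expressing Sup35N fused to peptides of 20 random codons. The yeast were induced with 100 μM copper sulfate for 24 hours and grown 7 days at 30°C on medium lacking adenine and uracil, and sequences with under 100 input reads were excluded. Nucleation score is the DiMSum log enrichment of output over input reads, centred on the mode score of non-aggregating sequences.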
With NDREWNKRYGINTKQPAAVT the amyloid nucleation score was “inactive”.
For KLPMRVGLM, the amyloid nucleation score was “inactive”.
For VVDFSTYWY, the amyloid nucleation score was “inactive”.
For LCESSLKDNGVTSLFVWVLK, the amyloid nucleation score was “inactive”.
In the case of IIPTD, the amyloid nucleation score is reported as “inactive”.
In the case of NTFCGVEISSYIGAARKCLK, the amyloid nucleation score is reported as “inactive”.
In the case of ALDIDWFYWYRHQSSPSFFY, the amyloid nucleation score is reported as “inactive”.
In the case of TKCNDYFNVSRYSSLDS, the amyloid nucleation score is reported as “inactive”.
For NWWIRGS, the amyloid nucleation score was -0.185 ± 0.82.
For SNRYKVCWCCPFLFRGVTRL, the amyloid nucleation score was 1.94 ± 0.093.
In the case of DLGFWPYFISIMACCWDQKG, the amyloid nucleation score is reported as 1.15 ± 0.12.
With PSHSLSGRCHV the amyloid nucleation score was “inactive”.
In the case of IFILRLDIIALLNVTGIRIW, the amyloid nucleation score is reported as “inactive”.
In the case of HKDMVNASLPGITSARWLGR, the amyloid nucleation score is reported as “inactive”.
With CPTIPMVGTF the amyloid nucleation score was “inactive”.
In the case of CAMTLRTFFQPPPITTSKYC, the amyloid nucleation score is reported as “inactive”.
In the case of FWLGDM, the amyloid nucleation score is reported as “inactive”.
With YYGVDHLLNWIPFACTARLG the amyloid nucleation score was “inactive”.
With GRYVCRL the amyloid nucleation score was -0.459 ± 0.9.
Work on TVMPIYQCSIGVKFSCDSAK yielded an amyloid nucleation score of 1.53 ± 0.072.
Work on FRVEFTVMFLGVCTYSGDAL yielded an amyloid nucleation score of -0.329 ± 0.65.
In the case of LWRDSGTITDGFECFSME, the amyloid nucleation score is reported as “inactive”.
With YVTSNSVDRTIKCSAFILIC the amyloid nucleation score was “inactive”.
With RSSSIYYICFQTFTRCNYPV the amyloid nucleation score was “inactive”.
Substance IIASDLSLSVVNVFN has an amyloid nucleation score of 0.341 ± 0.31.
With SMRKRKRIKLDI the amyloid nucleation score was “inactive”.
In the case of SLWMQGWYSSGLLPFGSIAE, the amyloid nucleation score is reported as “inactive”.
With GYLIIVIRLSAIDRHQ the amyloid nucleation score was “inactive”.
In the case of MSLHCDHIAEGNELWGDVRR, the amyloid nucleation score is reported as “inactive”.
For VKNIWIDVTMGDQLFIPNFY, the amyloid nucleation score was 2.36 ± 0.051.
For WKSPVYAYVWNSGPFRRQGK, the amyloid nucleation score was “inactive”.
With LYISNFANEINA the amyloid nucleation score was “inactive”.
For CSMFVAIIPRWSFEWPLRW, the amyloid nucleation score was “inactive”.
For NTYDAVISIACVSHQSICST, the amyloid nucleation score was “inactive”.
With VVMWQRRLRYGPKERNNGKV the amyloid nucleation score was -0.067 ± 0.4.
In the case of RSCYEVLRHGREL, the amyloid nucleation score is reported as “inactive”.
In the case of VLSHSHGSWSRESYKLLRLD, the amyloid nucleation score is reported as “inactive”.
For MAKVLHNWFFDRYRFVMFIG, the amyloid nucleation score was “inactive”.
For TLTLAFARGDAYPSIARLV, the amyloid nucleation score was “inactive”.
In the case of DLIWWRGAQAVNTLNSGSKR, the amyloid nucleation score is reported as 0.115 ± 1.
In the case of VRNRSFGTALDNELLNLRPR, the amyloid nucleation score is reported as “inactive”.
With SINRTKQCLEVNFHLDDCKA the amyloid nucleation score was “inactive”.
In the case of NRPLNIAAVLY, the amyloid nucleation score is reported as “inactive”.
With LCYNVKSVCGQTMLQLVE the amyloid nucleation score was “inactive”.
In the case of MIYSTRSVFDFCGTFNTVVY, the amyloid nucleation score is reported as “inactive”.
In the case of RCLTEA, the amyloid nucleation score is reported as “inactive”.
In the case of FDSKVWSAQRVRSTRLLSLG, the amyloid nucleation score is reported as “inactive”.
TVARMRFSTMTRDAQCVGRL gave an amyloid nucleation score of 0.107 ± 0.9.
For PGRTSYMKVPYCKWSEWPAK, the amyloid nucleation score was “inactive”.
In the case of HYLLACSYDRFFSRSSAYSL, the amyloid nucleation score is reported as “inactive”.
For RYRLSMELT, the amyloid nucleation score was “inactive”.
With SVSFFAF the amyloid nucleation score was “inactive”.
For SLMIG, the amyloid nucleation score was “inactive”.
For CSCQMSRFMRTLVCVFT, the amyloid nucleation score was “inactive”.
In the case of AWKLKFFVFNSLSVIT, the amyloid nucleation score is reported as “inactive”.
With SRVHEVLNFCTY the amyloid nucleation score was “inactive”.
LLVKSYNLYIMFSPHL gave an amyloid nucleation score of 1.68 ± 0.078.
Substance DTYFTVCSLWGPV has an amyloid nucleation score of 0.999 ± 0.12.
For MIIRGKPVIWMECLAVRTDR, the amyloid nucleation score was “inactive”.
For TSNTGVSVSRFTFSVDRSVG, the amyloid nucleation score was “inactive”.
For SSYYISNVSMPTFSEFVVTL, the amyloid nucleation score was “inactive”.
For SFSMIRE, the amyloid nucleation score was “inactive”.
In the case of VAGLSRHIRIFHYYHSRARF, the amyloid nucleation score is reported as “inactive”.
In the case of HLRWMTEKGPVRNVCVRGCH, the amyloid nucleation score is reported as “inactive”.
With DSYCYVWYKYSNVNVGD the amyloid nucleation score was “inactive”.
Work on VGLVMNCNKFYVLWFDQIGK yielded an amyloid nucleation score of 2.27 ± 0.068.
With WCGEKVCCRAQMSLTIKSLL the amyloid nucleation score was “inactive”.
With SKHSVAGQTKC the amyloid nucleation score was “inactive”.
For PVALLTD, the amyloid nucleation score was “inactive”.
In the case of LHIVNCCQPKHTRFVFQWYW, the amyloid nucleation score is reported as 1.89 ± 0.1.
With TIIMR the amyloid nucleation score was “inactive”.
Substance MKCFSVSVLCNLGSFLCEVT has an amyloid nucleation score of 0.146 ± 0.9.
VSQYSVLGVAWSELFRTVD gave an amyloid nucleation score of -0.064 ± 0.26.
In the case of VALVVHSLR, the amyloid nucleation score is reported as “inactive”.
With DCFDFIEETGTNKAFRVWGI the amyloid nucleation score was 0.283 ± 0.24.
For AYNQSRILGVDLACRNELLC, the amyloid nucleation score was “inactive”.
With IREYCFH the amyloid nucleation score was “inactive”.
In the case of CFFLYCLNFFMRSIERDRDG, the amyloid nucleation score is reported as 2.24 ± 0.054.
With MKRGWFELMIHWDYI the amyloid nucleation score was “inactive”.
With ALMMRLFFRIRSTMCCWVCS the amyloid nucleation score was “inactive”.
For GFSLKGLNSNDTRSLSHKLG, the amyloid nucleation score was “inactive”.
For WTEGST, the amyloid nucleation score was “inactive”.
For VQLIWDFYSCSN, the amyloid nucleation score was “inactive”.
Substance TLIFRLYLRRNCNAVFCFVV has an amyloid nucleation score of 0.084 ± 0.56.
In the case of VYTMVTMIDGIELFRWNLWS, the amyloid nucleation score is reported as “inactive”.
With MLLSSVPDCFSWMGLRFCGD the amyloid nucleation score was “inactive”.
For SQGLYVGPVAPSGTVRRVWM, the amyloid nucleation score was “inactive”.
For FISDRGGLVRMNYPPRHW, the amyloid nucleation score was “inactive”.
RIVIPMVWEYIFSDFVFG gave an amyloid nucleation score of 1.72 ± 0.088.
With ILKSTELWKRESQFSQRVGA the amyloid nucleation score was 4.44 ± 0.057.
Work on VIFSITANIRAQFLFYCYRV yielded an amyloid nucleation score of -0.083 ± 0.81.
DIYSDWLFIVLRHLVIRVLS showed an amyloid nucleation score of 0.754 ± 0.12.
With SYEAF the amyloid nucleation score was “inactive”.
In the case of KTDTCRNIL, the amyloid nucleation score is reported as “inactive”.
Substance WWVIVGSAYVFDISIHFSSP has an amyloid nucleation score of 1.24 ± 0.096.
For LCILMMKVKVCVGNGLFLSA, the amyloid nucleation score was “inactive”.
NASMNKYYVRFTFGNPHVLL showed an amyloid nucleation score of 2.52 ± 0.061.
With MTWNTGLYSRGRHGFYGFST the amyloid nucleation score was 1.26 ± 0.15.
TLNIRCRRFVFVWDATNSV showed an amyloid nucleation score of 2.88 ± 0.064.
In the case of LCYALQEGRRWEGYEIRNSM, the amyloid nucleation score is reported as “inactive”.
GSGVRGQRMSGKCR gave an amyloid nucleation score of 0.164 ± 0.42.
For SFLIGVV, the amyloid nucleation score was “inactive”.
For LCIGVDLKPCYGSVDRYVNL, the amyloid nucleation score was “inactive”.
For VISFDVWSNRMCFLMGMIWH, the amyloid nucleation score was “inactive”.
For TVLVGDMVVR, the amyloid nucleation score was “inactive”.
With NAAGCSVSGCIG the amyloid nucleation score was “inactive”.
In the case of THISQNLQSVVHLYVLRKVV, the amyloid nucleation score is reported as “inactive”.
With VFRTSLLKSYFGFNMKCDNY the amyloid nucleation score was 0.039 ± 0.26.
In the case of ESASSYFLY, the amyloid nucleation score is reported as 0.583 ± 0.24.
For MAEWENRLARYSGICGSSLP, the amyloid nucleation score was “inactive”.
In the case of RFIVCCKTGCVY, the amyloid nucleation score is reported as “inactive”.
For RSDVYCWDNYRLEGSGQSSL, the amyloid nucleation score was “inactive”.
With AVNPRQFKFTVDEKSIGRVA the amyloid nucleation score was “inactive”.
With GVYSVSLLVLWMSMRASIAC the amyloid nucleation score was “inactive”.
In the case of CQDHVKNITAIPHSSGMYMS, the amyloid nucleation score is reported as “inactive”.
TLCQREPG showed an amyloid nucleation score of 0.209 ± 0.71.
In the case of FGVCSLFESCIVSFNIVRRL, the amyloid nucleation score is reported as “inactive”.
EAHGIQLMMGLFAFR gave an amyloid nucleation score of 1.11 ± 0.15.
For SIYKE, the amyloid nucleation score was “inactive”.
With FRKETNSSHGLMKWAKEQ the amyloid nucleation score was “inactive”.
DTSKNYAIYFGKLGDWSARS showed an amyloid nucleation score of -0.01 ± 0.96.
With PYSIVSGPRIFYGCYHSFI the amyloid nucleation score was “inactive”.
Substance VMKNSTIILSFTFLSPKVSF has an amyloid nucleation score of 2.16 ± 0.069.
GIWCYAITLGFRPAGSTWDS gave an amyloid nucleation score of 1.02 ± 0.15.
For EVKFYWKYKGV, the amyloid nucleation score was 0.561 ± 0.16.
In the case of ITIFDRMNH, the amyloid nucleation score is reported as “inactive”.
With VVWLQFGMEVKSSFSMTSKT the amyloid nucleation score was “inactive”.
MVNLSLCLNVVAEGLNFDRF gave an amyloid nucleation score of 1.66 ± 0.091.
In the case of RFDWRLSCTGRNMVASLLFV, the amyloid nucleation score is reported as “inactive”.
With LSLATTSTLTLPMWKGTRLN the amyloid nucleation score was 0.744 ± 0.2.
In the case of KSQLFLMWSSSKLLTYTVQA, the amyloid nucleation score is reported as “inactive”.
With WSISIGYFP the amyloid nucleation score was “inactive”.
For SYVVRLMSLVAWN, the amyloid nucleation score was “inactive”.
For GLAQTSLFI, the amyloid nucleation score was “inactive”.
With VGVNWTFPMPLSTL the amyloid nucleation score was “inactive”.
In the case of WGSEFIDTKFA, the amyloid nucleation score is reported as “inactive”.
In the case of MPRESLDLSTWVLVEEFIYI, the amyloid nucleation score is reported as “inactive”.
In the case of CMLSDVIFYIVDDIRMFVGV, the amyloid nucleation score is reported as “inactive”.
With SIGELPT the amyloid nucleation score was “inactive”.
In the case of RTIYTLPSCEIEGDLWHLSG, the amyloid nucleation score is reported as “inactive”.
With RHRQSPYIINSVVIFGNQGT the amyloid nucleation score was 2.5 ± 0.067.
For RYSLCCYGGFFRYSRDFMRR, the amyloid nucleation score was 1.14 ± 0.14.
For ENSEW, the amyloid nucleation score was “inactive”.
With LYNRQVGKDANSFLYNRASQ the amyloid nucleation score was “inactive”.
In the case of LCSYSIESFALLHVFNEAFQ, the amyloid nucleation score is reported as “inactive”.
For YDLRCCTAVLFDLVESRATL, the amyloid nucleation score was “inactive”.
With PYNVSLFMLRMVSIFFVQHL the amyloid nucleation score was “inactive”.
For RVFIDRDRP, the amyloid nucleation score was “inactive”.
For SVFRDSRPLLYDVNMVNGGG, the amyloid nucleation score was “inactive”.
For IDMFGSWFSCILGEKNQLGS, the amyloid nucleation score was “inactive”.
For CSGYFDCIDTLKCNSS, the amyloid nucleation score was “inactive”.
With NIDVYDLMRLSVFDNKMATG the amyloid nucleation score was “inactive”.
In the case of RRCNVMLKNDLNCLPSSLFI, the amyloid nucleation score is reported as 0.322 ± 0.62.
In the case of RQCCCSLKHIVWQPLGLCRK, the amyloid nucleation score is reported as “inactive”.
In the case of LIVYFRPYGNALRRFVRSYV, the amyloid nucleation score is reported as “inactive”.
In the case of RELVNSNALGNFLWETVCFS, the amyloid nucleation score is reported as “inactive”.
In the case of LLHCQCSC, the amyloid nucleation score is reported as “inactive”.
In the case of SCMVNMSPVGWDSAGGEQGV, the amyloid nucleation score is reported as “inactive”.
For EFGWQL, the amyloid nucleation score was “inactive”.
IVTLCSIFDFAFVVTASTMG gave an amyloid nucleation score of 1.13 ± 0.16.
